From patent US10208288B2, “Differentiation of human embryonic stem cells into pancreatic endocrine cells” (Janssen Biotech, Inc., priority 2012, dated 2019)

Tested on: cells of the human embryonic stem cell line H1 differentiated to stage 5
Test: Immunostaining for insulin protein expression at the end of Stage 5
Assay type: cell-based
Conditions: 50 or 100 ng/ml for three days at stage 5, immunostaining vs control; FIG. 2, FIG. 3
Method: Cells of the human embryonic stem cell line H1 (hESC H1, passage 40) were seeded as single cells at 1×10^5 cells/cm^2 on MATRIGEL™ (1:30 dilution; BD Biosciences, NJ)-coated dishes in mTeSR®1 media supplemented with 10 μM of Y27632. Forty-eight hours post seeding, cultures were washed in incomplete PBS (phosphate buffered saline without Mg or Ca). Cultures were differentiated into pancreatic endoderm/endocrine lineages as follows: • a) Stage 1 (Definitive Endoderm (DE)—3 days): Cells were cultured for one day in stage 1 media (see Example 1, above). Cells were then cultured for an additional day in MCDB-131 medium supplemented with 0.1% fatty acid-free BSA, 0.0012 g/ml sodium bicarbonate, 1× GlutaMax™, 4.5 mM D-Glucose, 100 ng/ml GDF8, and 0.1 μM MCX compound. […]

B1: Ephrin-A3: Ephrin ligand protein from R & D systems (protein, UniProt P52797 23-214, looked up)
Ephrin-A3: QGPGGALGNRHAVYWNSSNQHLRREGYTVQVNVNDYLDIYCPHYNSSGVGPGAGPGPGGGAEQYVLYMVSRNGYRTCNASQGFKRWECNRPHAPHSPIKFSEKFQRYSAFSLGYEFHAGHEYYYISTPTHNLHWKCLRMKVFVCCASTSHSGEKPVPTLPQFTMGPNVKINVLEDFEGENPQVPKLEKSISG
protein expression of insulin: significantly enhanced
